{
  "source": "IntAct's records for PubMed 8887672",
  "parents": {"B1": {"name": "RNA polymerase I-specific transcription initiation factor RRN11 (Saccharomyces cerevisiae), Q04712 (parent)", "chain": "MFEVPITLTNRKFAQRRKLKYQYINYISRRFDRISKKSTTTDSLPTPENSAAENNDEEEGQNSEAGTYRRSVLQQKKRRRERHWRSVVGEIYSTTESETDSQEEETEEGGEHDTGIDKEDSDEERKFWKKYEKPEKSFEIWRTVSSQNKQPINKQKMTYHNFKKIEKIPLRKMEIPLLHCTKENKLYFQSISRGLEPLKTSTSEVRNYRTRHIVTLTDLLHLNVSRHNWSLAYKIFATLIRIPGVQIKSLWGIGVEILDNLSNSSSGLDFLQWMCQIYSSKSRFVQNINYRSIVPPFQTGSRTHTAKFAITYLWSSLINCQKSMEPSSNIIDKPFDTENDLLQELIDKISEWVLTPPFMEDAEVWFIYASCHLLKADTLSRQFVNDNKNNDLIGLDRDIKINQVIKHIHYVRTFLKICLDKGGFAVPSRLIENQLKSFESRLYGEAQDIQERDVANVYDSIDNSSVENSFGDVYETNAEFLDTQLMDLSPEDNGLDEMHYSDEDSSE", "partner": "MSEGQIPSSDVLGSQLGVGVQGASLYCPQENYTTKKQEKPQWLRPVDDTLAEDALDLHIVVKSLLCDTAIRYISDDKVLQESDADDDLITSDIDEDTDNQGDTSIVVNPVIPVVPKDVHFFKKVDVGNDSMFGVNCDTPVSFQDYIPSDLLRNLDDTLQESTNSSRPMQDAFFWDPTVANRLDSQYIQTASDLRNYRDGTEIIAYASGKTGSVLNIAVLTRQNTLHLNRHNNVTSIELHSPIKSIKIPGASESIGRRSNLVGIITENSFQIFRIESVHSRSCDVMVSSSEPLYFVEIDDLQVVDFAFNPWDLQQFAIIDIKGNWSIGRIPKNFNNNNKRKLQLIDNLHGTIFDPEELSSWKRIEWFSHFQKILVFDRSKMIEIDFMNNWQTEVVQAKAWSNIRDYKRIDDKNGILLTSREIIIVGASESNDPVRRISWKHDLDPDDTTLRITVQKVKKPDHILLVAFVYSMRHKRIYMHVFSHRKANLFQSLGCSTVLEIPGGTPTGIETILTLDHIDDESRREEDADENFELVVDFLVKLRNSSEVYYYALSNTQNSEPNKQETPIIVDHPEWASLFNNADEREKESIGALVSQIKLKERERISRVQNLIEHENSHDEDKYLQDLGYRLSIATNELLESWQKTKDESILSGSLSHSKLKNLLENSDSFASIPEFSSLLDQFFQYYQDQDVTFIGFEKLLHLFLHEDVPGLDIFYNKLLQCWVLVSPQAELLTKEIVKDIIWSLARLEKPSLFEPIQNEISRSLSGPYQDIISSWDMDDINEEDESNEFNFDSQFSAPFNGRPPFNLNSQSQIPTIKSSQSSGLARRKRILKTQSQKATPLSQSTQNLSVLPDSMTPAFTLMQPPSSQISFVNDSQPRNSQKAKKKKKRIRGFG"}, "B2": {"name": "RNA polymerase I-specific transcription initiation factor RRN6 (Saccharomyces cerevisiae), P32786 (parent)", "chain": "B1 partner", "partner": "B1 chain"}},
  "data": [
    {"variants_of": "B1", "details": "with rrn6_yeast RRN6, P32786", "values": [
      {"variant": "MFEVPITLTNRKFAQRRKLKYQYINYISRRFDRISKKSTTTDSLPTPENSAAENNDEEEGQNSEAGTYRRSVLQQKKRRRERHWRSVVGEIYSTTESETDSQEEETEEGGEHDTGIDKEDSDEERKFWKKYEKPEKSFEIWRTVSSQNKQPINKQKMTYHNFKKIEKIPLRKMEIPLLHCTKENKLYFQSISRGLEPLKTSTSEVRNYRTRHIVTLTDLLHLNVSRHNWSLAYKIFATLIRIPGVQIKSLWGIGVEILDNLSNSSSGLDFLQWMCQIYSSKSRFVQNINYRSIVPPFQTGSRTHTAKFAITYLWSSLINCQKSMEPSSNIIDKPFDTENDLLQELIDKISEWVLTPPFMEDAEVWFIYASCHLLKADTLSRQFVNDNKNNDLIGLDRDIKINQVIKHIHYVRTFLKICLDKGGFAVPSRLIENQLKSFESRLYGEAQDIQERDVANVYDSIDNSSVENSFGDVYETNAEFADTQLMDASPEDNGADEMHYSDEDSSE", "note": "[L481A;L488A;L495A]", "effect of a mutation on the interaction": "decreasing interaction"}
    ]},
    {"variants_of": "B2", "details": "with rrn11_yeast RRN11, Q04712", "values": [
      {"variant": "L50A;L57A;L64A", "effect of a mutation on the interaction": "decreasing interaction"}
    ]}
  ]
}
